Measurements as given in patent WO2009080764A2 (dated 2009).
Values belong to the binder of their own block, whether it stands above or below them.

Assays:
[1] = target: T1, human beta2-microglobulin (human, UniProt P61769 21-119); assay: ELISA on coated b2-microglobulin from human urine, pH 5.1
T1 construct: also called b2-microglobulin; soluble human b2-microglobulin

[2] = target: shFcRn (intact soluble human FcRn, heavy chain and beta2-microglobulin) (human) (UniProt P55899); assay: ELISA pH 5.1, purified nanobody 0-50 nM on coated shFcRn, anti-myc detection
[3] = target: T2, human serum albumin (HSA) (human, UniProt P02768 25-609); assay: SPR Biacore T100, periplasmic extract over immobilized human serum albumin, pH 7 and pH 5
T2 construct: also called monomeric HSA

[4] = target: T3, shFcRn-GST (GST-fused soluble human FcRn, heterodimeric) (human, UniProt P55899 24-290; P61769 21-119); assay: SPR Biacore 3000, Nb 500-15 nM over immobilized shFcRn-GST, pH 6.0, 1:1 Langmuir model
T3 construct: Eukaryotically expressed; immobilized by amine coupling on CM5 chips or used in ELISA; also called GST-fused shFcRn; not shown: GST fusion partner

[5] = target: T3, shFcRn-GST (GST-fused soluble human …); assay: SPR Biacore 3000, Nb 500-15 nM over immobilized shFcRn-GST, pH 7.4, 1:1 Langmuir model
[6] = target: T3, shFcRn-GST (GST-fused soluble human …); assay: SPR Biacore 3000, immobilized shFcRn-GST, pH 6.0, equilibrium responses in a steady-state affinity model
[7] = target: T3, shFcRn-GST (GST-fused soluble human …); assay: SPR Biacore 3000, immobilized shFcRn-GST, pH 7.4, equilibrium responses in a steady-state affinity model

binding result [1]: no binding (tested: 0-50 nM) | fold improvement in binding against the monovalent nanobody [2]: 10 fold
B1: 218-H4_20GS_218-H4 (bivalent Nb 218-H4) (VHH)
chain: EVQLVESGGALVQAGGSLRLSCVASGRTFNSIGMGWFRQAPGKERDFIGGITWDGRDTYYTDSVKGRFTISRDNAKNTVYLQMNSLKPWDTAVYYCAANRDPWIATSYQDYAYWGQGTQVTVSSGGGGSGGGGSGGGGSGGGGSEVQLVESGGALVQAGGSLRLSCVASGRTFNSIGMGWFRQAPGKERDFIGGITWDGRDTYYTDSVKGRFTISRDNAKNTVYLQMNSLKPWDTAVYYCAANRDPWIATSYQDYAYWGQGTQVTVSS

fold difference in off rate, pH 5 against pH 7 [3]: 0.54 fold
B2: 4A9 (VHH)
VHH: EVQLVESGGGLVQAGGSLRLSCEASGFTLDYSGVGWFRQAPGKERELVSCISRGGDRAGYANSVKGRFTMSRDNAKNILYLQMNSLKPEDTAVYYCAATHSGSGCYDGAIDYWGKGTLVTVSS

binding result [1]: no binding (tested: 0-50 nM) | Kd [4]: ~21.2 nM | Kd [5]: ~52.5 nM | Kd [6]: 22 nM | Kd [7]: 55.6 nM
B3: Nb 218-H4 (VHH)
VHH: EVQLVESGGALVQAGGSLRLSCVASGRTFNSIGMGWFRQAPGKERDFIGGITWDGRDTYYTDSVKGRFTISRDNAKNTVYLQMNSLKPWDTAVYYCAANRDPWIATSYQDYAYWGQGTQVTVSS
notes: Anti-FcRn Nanobody, family V; detected through a myc tag; also called monovalent nanobody
